Test results as given in US7279149B2, “Amino acid composition with increased blood brain barrier permeability” (Mayo Foundation for Medical Education and Research, priority 2003, dated 2007).

Columns and labels:
[1] = biological target: T1, amyloid plaques in APP, PS1 mouse brain (Homo sapiens, UniProt P05067); conditions: PS1 mouse brains ex vivo following IV injection (Poduslo 2002); cited from earlier work
T1 construct: host or cells: APP, PS1 mouse brain (earlier studies: Wengenack 2000; Poduslo 2002)
T1 sequence (P05067 672-711 limits assumed): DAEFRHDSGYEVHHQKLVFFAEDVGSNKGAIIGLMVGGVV

[2] = tested on: amyloid plaques in human AD temporal lobe cortex sections; assay: Labeling of amyloid plaques in human AD brain sections in vitro (emulsion autoradiography); assay type: binding
Procedure: (§1) f. Labeling of Amyloid Plaques in Human AD and APP, PS1 Mouse Brain Sections In Vitro with Diamine- and Gadolinium-Substituted Aβ30 Peptides. HPLC-purified ^125I-Aβ40, ^125I-Aβ30, ^125I-[N-4ab/Q-4ab]Aβ30, ^125I-Gd[N-4ab/Q-4ab]Aβ30, or buffer was incubated with sections of unfixed AD temporal lobe cortex using the same procedure we used previously (Wengenack, T. M., et al., Neuroscience 101:939–944, 2000). Briefly, the 15 μm-sections were incubated for 3 hours at RT with 100 pM radioiodinated peptide or alone in 250 μl of TBS (50 mM Tris HCl, 138 mM sodium chloride, pH 7.0) containing 0.1% BSA, 0.6 mg/ml magnesium chloride, 0.04 mg/ml bacitracin, 0.002 mg/ml chymostatin, and 0.004 mg/ml leupeptin. The sections then underwent immunohistochemistry (IH) for amyloid using an anti-Aβ monoclonal mouse antibody (4G8, 1:1000, Signet Laboratories, Dedham, Mass.). Next, the sections were dipped in an autoradiographic emulsion (Type NTB-3, Kodak, Rochester, N.Y.) for direct comparison of ^125I-labeled amyloid deposits to anti-Aβ IH. The slides were dipped in emulsion, exposed for various durations, and developed according to the instructions. The sections were dehydrated with successive changes of ethanol and xylene and then coverslipped.

[3] = biological target: T2, amyloid plaques in APP, PS1 mouse brain sections (Homo sapiens, UniProt P05067); assay: Labeling of amyloid plaques in APP, PS1 transgenic mouse brain sections in vitro; assay type: binding
T2 construct: from tissue; host or cells: brain of APP (Tg2576) x PS1 (M146L6.2) double transgenic mice
T2 sequence (P05067 672-711 limits assumed): as above
Procedure: as §1, with “coverslipped. […]” for “coverslipped.”

[4] = biological target: T3, amyloid plaques in APP, PS1 transgenic mouse brain (Homo sapiens, UniProt P05067); assay: Labeling of amyloid plaques in APP, PS1 transgenic mouse brain in vivo after IV injection; conditions: 21-month old APP, PS1 mice, 750 μg IV, four hours
T3 construct: from tissue; host or cells: brain of APP (Tg2576) x PS1 (M146L6.2) double transgenic mice
T3 sequence (P05067 672-711 limits assumed): as above
Procedure: a. Subjects. These evaluations were performed using transgenic mice that express two mutant human proteins associated with familial AD and have been described in detail elsewhere (Holcomb, L., et al., Nature Med. 4:97–100, 1998). Hemizygous transgenic mice (Tg2576) expressing mutant human amyloid precursor protein (APP695) (Hsiao, K., et al., Science 274:99–102, 1996) were mated with a second strain of hemizygous transgenic mice (M146L6.2) expressing mutant human presenilin 1 (PS1) (Holcomb, L., et al., supra, 1998). The animals were genotyped for the expression of both transgenes by a PCR method using a sample of mouse-tail DNA. […]
g. […] Silver grains from sections exposed for 6 days and 2 weeks were quantitated using unbiased, stereological techniques. Sections exposed for 4 or 8 weeks were somewhat overexposed such that over many of the plaques the exposed silver grains had become confluent could not be counted accurately. Silver grains were counted over plaques in three sections from each animal in the retrosplenial cortex and CA1 region of the hippocampus using a 10-μm×10-μm dissector at 400×. The mean background level of exposed silver grains was also determined for each section. The results were expressed as the mean number of silver grains/100 μm^2 minus the background. […]

[5] = biological target: T4, amyloid plaques in APP, PS1 mice (Homo sapiens, UniProt P05067); conditions: 200 μg, PS1 mice at 27 weeks of age (Wengenack 2000); cited from earlier work
T4 construct: host or cells: APP, PS1 mouse brain (earlier studies: Wengenack 2000; Poduslo 2002)
T4 sequence (P05067 672-711 limits assumed): as above

Row | Substance | contrast enhancement of plaques during MRI [1] | labeling of neuritic plaques ([2]; 100 pM radioiodinated peptide, 3 hours at RT, unfixed human AD temporal lobe cortex sections) | labeling of small amyloid deposits ([2]; 100 pM radioiodinated peptide, human AD sections) | exposure time required to detect exposed silver grains ([2]; human AD sections, equal amounts of peptide (100 pM)) [days] | labeling of neuritic plaques ([3]; 100 pM, unfixed APP) | duration of exposure to achieve a detectable amount of silver grains ([3]; APP, equal amounts of peptide) | labeling of plaques in vivo [4] | labeling of plaques in vivo, previous study [5]
1 | (PUT-)Gd-Aβ40: polyamine (putrescine)-modified Gd-Aβ40 of a previous study | provide contrast enhancement of plaques |  |  |  |  |  |  | 
2 | Aβ40: human amyloid-β peptide Aβ40, radioiodinated; served as a positive control |  | labeled most dense-core, neuritic type plaques | labeled only a few | 7 | labeled most of the neuritic plaques | one | also labeled plaques in vivo | did not label plaques
3 | Gd-Aβ40: Gd-DTPA substituted Aβ40 of a previous study | not to provide contrast enhancement of plaques |  |  |  |  |  |  | 
